In PMC3257528 (The Journal of Cell Biology, 2011):
Residue numbers refer to the chain shown, from its start. Names may count otherwise.

Experiments:
[1] = molecular target: ATL2 (6His-tagged cytoplasmic / soluble domain, ATL2 1–467) (Homo sapiens, UniProt Q8NHH9); assay: SEC dimer shift; type: binding; details: 2 mM GMPPNP (SEC, cross-linking) or 1 mM (EM); 30 min RT
[2] = substrate: Nc1nc2c(ncn2[C@@H]2O[C@H](COP(=O)(O)OP(=O)(O)OP(=O)(O)O)[C@@H](O)[C@H]2O)c(=O)[nH]1; assay: malachite green phosphate release, Lineweaver-Burk; type: biochemical, Homo sapiens; details: 1 µM enzyme, 5, 10, 20 µM GTP, 37 °C

With `Nc1nc2c(ncn2[C@@H]2O[C@H](COP(=O)(O)OP(=O)(O)NP(=O)(O)O)[C@@H](O)[C@H]2O)c(=O)[nH]1` [GMPPNP, guanosine 5′-[β,γ-imido]triphosphate] the “SEC dimer shift (Superdex 200), BMOE cross-linking, negative-stain EM” value [1] was “wild-type ATL2 formed dimers in the presence, but not in the absence, of GMPPNP”.

B1: ATL2 (6His-tagged cytoplasmic / soluble domain, ATL2 1–467) (Homo sapiens) (protein)
chain: MAEGDEAARGQQPHQGLWRRRRTSDPSAAVNHVSSTTSLGENYEDDDLVNSDEVMKKPCPVQIVLAHEDDHNFELDEEALEQILLQEHIRDLNIVVVSVAGAFRKGKSFLLDFMLRYMYNKDSQSWIGGNNEPLTGFTWRGGCERETTGIQVWNEVFVIDRPNGTKVAVLLMDTQGAFDSQSTIKDCATVFALSTMTSSVQVYNLSQNIQEDDLQHLQLFTEYGRLAMEEIYQKPFQTLMFLIRDWSYPYEHSYGLEGGKQFLEKRLQVKQNQHEELQNVRKHIHNCFSNLGCFLLPHPGLKVATNPSFDGRLKDIDEDFKRELRNLVPLLLAPENLVEKEISGSKVTCRDLVEYFKAYIKIYQGEELPHPKSMLQATAEANNLAAVAGARDTYCKSMEQVCGGDKPYIAPSDLERKHLDLKEVAIKQFRSVKKMGGDEFCRRYQDQLEAEIEETYANFIKHNDGKN
B1 was tested, and the Km [2] was 34 µM.

B2: ATL2 (6His-tagged cytoplasmic / soluble domain, ATL2 1–467) (Homo sapiens; E380R/K372E) (protein)
chain: B1 chain with K372E, E380R
B2 showed a Km [2] of 44 µM.
